Experiment [1] concerns the target T1, endogenous LGR5 of human cancer cell lines (human (endogenous in NALM6, REH, 697, LoVo)) (UniProt O75473).
T1 sequence: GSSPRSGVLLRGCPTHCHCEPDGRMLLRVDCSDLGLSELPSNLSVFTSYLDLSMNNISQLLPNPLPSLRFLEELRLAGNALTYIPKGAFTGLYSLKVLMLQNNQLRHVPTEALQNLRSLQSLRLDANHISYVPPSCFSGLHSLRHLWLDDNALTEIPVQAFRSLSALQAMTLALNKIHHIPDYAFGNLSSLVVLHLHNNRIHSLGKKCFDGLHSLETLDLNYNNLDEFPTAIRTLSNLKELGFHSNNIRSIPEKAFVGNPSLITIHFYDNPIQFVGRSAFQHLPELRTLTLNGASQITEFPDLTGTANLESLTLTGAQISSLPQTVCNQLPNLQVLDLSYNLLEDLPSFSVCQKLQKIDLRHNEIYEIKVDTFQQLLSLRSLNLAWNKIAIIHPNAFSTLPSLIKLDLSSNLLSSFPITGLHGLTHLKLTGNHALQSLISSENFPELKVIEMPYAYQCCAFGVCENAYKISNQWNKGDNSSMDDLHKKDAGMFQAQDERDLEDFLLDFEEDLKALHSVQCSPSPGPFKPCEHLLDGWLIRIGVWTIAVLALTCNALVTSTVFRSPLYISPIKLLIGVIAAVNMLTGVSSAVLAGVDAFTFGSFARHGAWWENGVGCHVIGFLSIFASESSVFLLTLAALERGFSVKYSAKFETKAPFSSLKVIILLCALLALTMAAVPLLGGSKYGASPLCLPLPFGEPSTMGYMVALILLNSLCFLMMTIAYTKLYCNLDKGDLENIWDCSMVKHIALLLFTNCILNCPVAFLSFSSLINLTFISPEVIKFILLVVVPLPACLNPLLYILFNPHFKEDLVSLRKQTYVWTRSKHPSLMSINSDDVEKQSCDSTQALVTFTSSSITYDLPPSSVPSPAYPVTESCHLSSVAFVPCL

Experiment [2] has as its target T1, endogenous LGR5 of human cancer cell lines (human (endogenous in NALM6, REH, 697, LoVo)). This is another data set of the same source.
Experiment [3] deals with T2, RAD-displayed Fragment 1A of human LGR5 (Homo sapiens, UniProt O75473).
T2 chain: GSSPRSGVLLRGCPT
In words: BLI.

For experiment [4], the target named is T3, endogenous LGR5 of human cancer cell lines (Homo sapiens, UniProt O75473). In words: western blot.
In experiment [5] the target is T2, RAD-displayed Fragment 1A of human LGR5. In words: western blot.
In experiment [6] the target is human LGR4 transgene with N-terminal HA tag, V2 receptor tail and eGFP (Homo sapiens, UniProt Q9BXB1). In words: flow cytometry on cells.
The target of experiment [7] is murine LGR5 transgene with N-terminal HA tag, V2 receptor tail and eGFP (Mus musculus, UniProt Q9Z1P4). In words: flow cytometry on cells.
In experiment [8] the target is T3, endogenous LGR5 of human cancer cell …. Nature of the experiment: flow cytometry on cells.
For experiment [9], the target named is T2, RAD-displayed Fragment 1A of human LGR5. In words: immunostaining of cells or tissue.

The text below walks through data of paper doi:10.1101/2022.09.01.506182 (bioRxiv, 2022).

Substitutions are numbered along the chain they refer to.

Chain of murine LGR5 transgene with N-terminal HA tag, V2 receptor tail and eGFP (Q9Z1P4 22-907): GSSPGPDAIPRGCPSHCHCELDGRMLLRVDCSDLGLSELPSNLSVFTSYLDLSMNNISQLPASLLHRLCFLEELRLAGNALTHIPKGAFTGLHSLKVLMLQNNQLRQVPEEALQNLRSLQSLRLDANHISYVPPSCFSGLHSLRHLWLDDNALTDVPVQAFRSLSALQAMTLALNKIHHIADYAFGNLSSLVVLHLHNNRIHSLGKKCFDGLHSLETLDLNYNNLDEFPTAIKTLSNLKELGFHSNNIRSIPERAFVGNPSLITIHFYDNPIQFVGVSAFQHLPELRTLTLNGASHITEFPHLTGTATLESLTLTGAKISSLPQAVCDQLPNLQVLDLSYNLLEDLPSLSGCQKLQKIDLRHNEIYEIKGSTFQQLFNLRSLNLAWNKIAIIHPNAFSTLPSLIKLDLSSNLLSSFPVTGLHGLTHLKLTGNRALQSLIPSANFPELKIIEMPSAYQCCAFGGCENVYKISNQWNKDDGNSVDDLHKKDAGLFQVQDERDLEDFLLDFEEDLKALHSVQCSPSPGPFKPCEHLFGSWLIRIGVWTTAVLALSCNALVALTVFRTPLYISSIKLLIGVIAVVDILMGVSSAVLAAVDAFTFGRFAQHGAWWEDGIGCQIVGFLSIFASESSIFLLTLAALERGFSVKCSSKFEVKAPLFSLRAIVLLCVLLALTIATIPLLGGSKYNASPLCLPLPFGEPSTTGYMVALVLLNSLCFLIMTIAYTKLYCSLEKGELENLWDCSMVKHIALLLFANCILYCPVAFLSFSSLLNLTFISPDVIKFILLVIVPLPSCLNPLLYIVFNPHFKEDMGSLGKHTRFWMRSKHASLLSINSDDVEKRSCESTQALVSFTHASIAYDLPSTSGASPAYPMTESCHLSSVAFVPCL
Chain of human LGR4 transgene with N-terminal HA tag, V2 receptor tail and eGFP (Q9BXB1 25-951): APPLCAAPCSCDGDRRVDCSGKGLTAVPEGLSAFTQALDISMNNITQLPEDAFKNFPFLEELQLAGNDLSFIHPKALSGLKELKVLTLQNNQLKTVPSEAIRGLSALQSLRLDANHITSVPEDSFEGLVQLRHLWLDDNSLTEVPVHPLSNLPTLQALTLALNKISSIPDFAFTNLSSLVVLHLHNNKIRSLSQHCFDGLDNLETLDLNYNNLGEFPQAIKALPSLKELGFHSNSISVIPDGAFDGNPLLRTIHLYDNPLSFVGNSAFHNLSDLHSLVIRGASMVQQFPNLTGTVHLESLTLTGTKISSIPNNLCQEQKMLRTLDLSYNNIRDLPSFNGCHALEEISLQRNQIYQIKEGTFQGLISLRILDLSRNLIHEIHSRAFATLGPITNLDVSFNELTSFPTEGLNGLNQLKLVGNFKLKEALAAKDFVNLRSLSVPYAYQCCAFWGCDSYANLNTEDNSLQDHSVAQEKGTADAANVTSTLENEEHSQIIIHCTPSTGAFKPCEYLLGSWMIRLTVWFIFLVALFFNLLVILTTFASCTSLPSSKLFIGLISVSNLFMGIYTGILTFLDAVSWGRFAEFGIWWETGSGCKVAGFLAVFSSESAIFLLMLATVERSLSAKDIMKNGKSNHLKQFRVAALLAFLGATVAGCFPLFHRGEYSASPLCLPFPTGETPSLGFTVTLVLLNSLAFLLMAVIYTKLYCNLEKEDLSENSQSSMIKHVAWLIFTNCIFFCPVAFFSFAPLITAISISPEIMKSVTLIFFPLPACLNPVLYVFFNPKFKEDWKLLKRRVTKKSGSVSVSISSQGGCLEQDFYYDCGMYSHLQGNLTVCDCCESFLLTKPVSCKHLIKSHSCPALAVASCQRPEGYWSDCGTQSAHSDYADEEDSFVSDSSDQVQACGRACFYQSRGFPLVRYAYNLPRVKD

B1: α-LGR5-ADC (murine clone 2 conjugated to MMAE, sulphatase cleavable linker) (antibody, V domains shown)
VH: QVQLQQPGAELVKPGASVKLSCKASGYTFTNYWMQWVKQRPGQGLEWIGEIDPSDSYTNYNQKFKGKATLTVDTSSSTAYMQLSSLTSEDSAVYYCARSLSGYVDYWGQGTTLTVSS
VL: DIQMTQTTSSLSASLGDRVTISCRASQDISNRLNWYQQKPDGTVKLLISYRSRLHSGVPSRFSGSGSGTDYSLTISNLEQEDIATYFCQQGNSLPPTFGGGTKLEVR
In experiment [1], B1 gave a killing of NALM6 cells after three days of treatment (CellTiter-Glo), EC50 of 4 nM and a killing of REH cells after three days of treatment (CellTiter-Glo), EC50 of 10 nM. For the same molecule, the killing of LoVo cells after three days of treatment (CellTiter-Glo), EC50 in [2] is 9 nM. In experiment [3], the binding result is given as “binds”.

B2: α-LGR5 hybridoma clone 2 (antibody, V domains shown)
VH: B1 VH
VL: B1 VL
With B2, the binding result in [4] and in experiment [5] was “binds” throughout.

B3: α-LGR5 hybridoma clone 3 (antibody, V domains shown)
VH: B1 VH with N31S, T58S
VL: B1 VL with H55Q, Q80E, S93T
Regarding B3, the binding result in experiment [5] is on record as “binds”.

B4: α-LGR5 hybridoma clone 4 (antibody, V domains shown)
VH: B1 VH with N31D, K65Q, M81I, E89D, Y103S
VL: B1 VL with H55Q, S76T, S93T
As to B4, the binding result in experiment [5] was “binds”.

B5: α-LGR5 hybridoma clone 1 (antibody, V domains shown)
VH: B1 VH with N31S, S56Y
VL: B1 VL with T7S, S22N, S30R, H55Q, D70E, S93T
Consider B5, for which, in experiment [5], the binding result is “binds”.

B6: murine α-LGR5 coupled to Dylight650 fluorophore (antibody, V domains shown)
VH: B1 VH
VL: B1 VL
As for B6, the binding result in [6] is “no binding”; in [7] it was “no binding”; in [8], “binds”; in experiment [9], “binds”.
